Measurements from patent US20050148511A1.

Columns and labels:
[1] = molecular target: FGFR1 expressed on FDCP cells; assay: cell-based or functional assay
[2] = molecular target: FGFR3IIIc expressed on FDCP cells; assay: cell-based or functional assay

Row | EC50 (effective concentration), mitogenicity on FGFR-transfected FDCP cells [1] [ng/mL] | EC50 (effective concentration), mitogenicity on FGFR-transfected FDCP cells [2] [ng/mL] | Substance
1 | 2.65 | 4.2 | wild type FGF-2 (from UniProt P09038 1-155) (ligand)
2 | 0.35 to 1 | 0.3 to 0.65 | FGF2(3,5Q)-N111G (ligand)
